± gives the standard deviation of the averaged measurements.
B1: library; a variant is named by its letters at N, in order (parent)
chain: GCUGUCACCGGUGCUUGGUACGUUAUAUUCAGCCGGUCUGAUGAGUCUNNNNNNAGACGAAACAGC

Tests used:
(6R,S)-folinic acid [1] = variants of: B1; test: FACS-Seq fitted mean relative fluorescence mCherry/BFP without ligand (log10 relative fluorescence); HEK293T overexpressing SLC46A1; higher = higher reporter protein expression; settings: without (6R,S)-folinic acid; ligand present: no
Procedure, shortened: (§1)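 To measure fluorescence, a normal distribution was fitted to read counts across sorted bins. The reporter libraries were HEK293T cells transduced by lentivirus with mCherry under ribozyme-switch control and an EF1α-BFP marker, enriched and then kept with or without ligand for 48 h. Sorting used 6 mCherry/BFP bins, and bin genomic DNA was PCR-amplified and sequenced on MiSeq. Fitted means of log10(mCherry/BFP) were scaled to five spiked-in control ribozymes.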

(6R,S)-folinic acid [2] = variants of: B1; test: normalized RNA/DNA level without ligand (relative to sTRSVctl = 100) (log10 (% of sTRSVctl)); HEK293T overexpressing SLC46A1; higher = less ribozyme self-cleavage, higher mRNA level; settings: without (6R,S)-folinic acid; ligand present: no
Procedure, shortened: (§2)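 Ribozyme switch library plasmids linked to reporters were introduced into HEK293T cells at 4 µg per 6-well well, with ligand, if any, added 1 h before. Total RNA was extracted with EDTA 72 h later, reverse-transcribed, amplified, barcoded and sequenced. RNA level was computed from RNA over DNA reads relative to a spiked-in non-cleaving sequence or the top sequences, then scaled and log-transformed. The top set was 25 sequences, values were ×100 and log10, and the cutoff was ≥100 DNA reads.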

(6R,S)-folinic acid [3] = variants of: B1; test: FACS-Seq fitted mean relative fluorescence mCherry/BFP with ligand (log10 relative fluorescence); HEK293T overexpressing SLC46A1; ligand concentration (+) FACS-Seq: 6 mM; higher = higher reporter protein expression; settings: with (6R,S)-folinic acid; ligand present: yes
Procedure, shortened: as §1

(6R,S)-folinic acid [4] = variants of: B1; test: normalized RNA/DNA level with ligand (relative to sTRSVctl = 100) (log10 (% of sTRSVctl)); HEK293T overexpressing SLC46A1; ligand concentration (+) RNA-Seq: 6 mM; higher = less ribozyme self-cleavage, higher mRNA level; settings: with (6R,S)-folinic acid; ligand present: yes
Procedure, shortened: as §2

| Variant | FACS-Seq fitted mean (log10) ((6R,S)-folinic acid [1]) | normalized RNA/DNA level without ligand (log10) ((6R,S)-folinic acid [2]) | FACS-Seq fitted mean (log10) ((6R,S)-folinic acid [3]) | normalized RNA/DNA level with ligand (log10) ((6R,S)-folinic acid [4]) |
| --- | --- | --- | --- | --- |
| UGCAGA | -0.262 ± 0.068 | 1.899 ± 0.008 | -0.0873 ± 0.14 | 1.995 ± 0.0057 |
| CGCCAG | 0.509 ± 0.022 | 1.998 ± 0.013 | 0.216 ± 0.15 | 1.998 ± 0.016 |
| UGGAUU | 0.509 ± 0.13 | 1.9762 ± 0.00085 | 0.582 ± 0.21 | 2.03 ± 0.023 |
| UGGAUG | 0.178 ± 0.037 | 1.68 ± 0.017 | 0.784 ± 0.046 | 1.958 ± 0.015 |
| CGCUUU | -0.0215 ± 0.022 | 2.017 ± 0.0068 | 0.0431 ± 0.039 | 2 ± 0.063 |
| AGGCUA | 0.50616 ± 0.00017 | 2.041 ± 0.0053 | 0.407 ± 0.33 | 2.06 ± 0.037 |
| AGGCUC | 0.131 ± 0.13 | 2.06 ± 0.041 | -0.123 ± 0.11 | 2.01 ± 0.067 |
| CGCAUU | 0.241 ± 0.21 | 2.015 ± 0.0023 | 0.576 ± 0.31 | 1.99 ± 0.039 |
| CGCAUA | 0.387 ± 0.012 | 1.98 ± 0.0046 | 0.156 ± 0.073 | 2 ± 0.059 |
| AGCCUG | 0.71 ± 0.23 | 2.01 ± 0.027 | 0.405 ± 0.12 | 2.05 ± 0.051 |
| AGCCUA | 0.465 ± 0.015 | 2.021 ± 0.012 | 0.612 ± 0.31 | 2.01 ± 0.021 |
| AGCGCA | 0.49 ± 0.034 | 2.01 ± 0.021 | 0.548 ± 0.31 | 2.04 ± 0.029 |
| GGGCAU | 0.273 ± 0.12 | 2.045 ± 0.01 | 0.0697 ± 0.059 | 2.054 ± 0.0062 |
| GGGGAA | 0.571 ± 0.12 | 1.996 ± 0.0088 | 0.428 ± 0.4 | 2.06 ± 0.034 |
| AGAUGA | 0.308 ± 0.011 | 1.9723 ± 0.0012 | 0.112 ± 0.046 | 2.02 ± 0.038 |
| AGAUGG | 0.589 ± 0.0066 | 1.91 ± 0.0092 | 0.62 ± 0.25 | 2.02 ± 0.028 |
| AGGUGA | 0.616 ± 0.086 | 1.964 ± 0.0069 | 0.768 ± 0.25 | 2.03 ± 0.028 |
| AGGUGG | 0.777 ± 0.14 | 1.977 ± 0.0086 | 0.549 ± 0.26 | 2.05 ± 0.045 |

| Variant | FACS-Seq fitted mean (log10) ((6R,S)-folinic acid [1]) | normalized RNA/DNA level without ligand (log10) ((6R,S)-folinic acid [2]) | FACS-Seq fitted mean (log10) ((6R,S)-folinic acid [3]) | normalized RNA/DNA level with ligand (log10) ((6R,S)-folinic acid [4]) |
| --- | --- | --- | --- | --- |
| GGCCAU | 0.522 ± 0.091 | 2.05 ± 0.023 | 0.337 ± 0.19 | 2.01 ± 0.063 |
| GGCCAA | 0.479 ± 0.052 | 2.045 ± 0.013 | 0.409 ± 0.049 | 2.024 ± 0.0077 |
| GGGAGU | 0.46 ± 0.087 | 1.975 ± 0.0027 | 0.487 ± 0.054 | 2 ± 0.038 |
| GGGAGG | 0.108 ± 0.032 | 2.014 ± 0.004 | 0.269 ± 0.081 | 2.04 ± 0.032 |
| GGGAGC | 0.342 ± 0.098 | 1.831 ± 0.0028 | 0.435 ± 0.029 | 1.96 ± 0.029 |
| UGCUUG | 0.46 ± 0.098 | 1.76 ± 0.018 | 0.655 ± 0.047 | 1.96 ± 0.034 |
| GGCACC | 0.275 ± 0.084 | 2.018 ± 0.0066 | -0.0119 ± 0.33 | 2.017 ± 0.0025 |
| GGCACU | -0.00197 ± 0.025 | 2.08 ± 0.04 | -0.0531 ± 0.17 | 2.02 ± 0.036 |
| CGGCUC | 0.213 ± 0.046 | 2.048 ± 0.0069 | 0.269 ± 0.16 | 2.037 ± 0.014 |
| UGAUGU | 0.318 ± 0.071 | 1.93 ± 0.021 | 0.125 ± 0.22 | 2.02 ± 0.044 |
| UGAUGG | 0.038 ± 0.0089 | 1.625 ± 0.0082 | 0.583 ± 0.093 | 1.91 ± 0.038 |
| UGAUGA | 0.447 ± 0.11 | 1.865 ± 0.0033 | 0.525 ± 0.05 | 2.01 ± 0.047 |
| CGAGUG | 0.389 ± 0.14 | 1.964 ± 0.0042 | 0.341 ± 0.17 | 2.01 ± 0.032 |
| CGAGUU | 0.1373 ± 0.00078 | 1.997 ± 0.012 | 0.394 ± 0.014 | 2 ± 0.031 |
| GGGUCG | 0.531 ± 0.011 | 2.082 ± 0.0039 | 0.432 ± 0.17 | 2.06 ± 0.05 |
| GGGCGG | 0.0567 ± 0.099 | 2.07 ± 0.027 | 0.485 ± 0.0056 | 2.06 ± 0.045 |
| GGAUUU | 0.647 ± 0.23 | 2.02 ± 0.034 | 0.596 ± 0.19 | 2.01 ± 0.048 |
| GGAUUC | 0.835 ± 0.03 | 2.045 ± 0.0076 | 0.746 ± 0.041 | 2.021 ± 0.016 |
